From IntAct's records for PubMed 15716268

B1: NAD-dependent protein deacetylase sirtuin-1 (Mus musculus), Q923E4 (parent)
chain: MADEVALALQAAGSPSAAAAMEAASQPADEPLRKRPRRDGPGLGRSPGEPSAAVAPAAAGCEAASAAAPAALWREAAGAAASAEREAPATAVAGDGDNGSGLRREPRAADDFDDDEGEEEDEAAAAAAAAAIGYRDNLLLTDGLLTNGFHSCESDDDDRTSHASSSDWTPRPRIGPYTFVQQHLMIGTDPRTILKDLLPETIPPPELDDMTLWQIVINILSEPPKRKKRKDINTIEDAVKLLQECKKIIVLTGAGVSVSCGIPDFRSRDGIYARLAVDFPDLPDPQAMFDIEYFRKDPRPFFKFAKEIYPGQFQPSLCHKFIALSDKEGKLLRNYTQNIDTLEQVAGIQRILQCHGSFATASCLICKYKVDCEAVRGDIFNQVVPRCPRCPADEPLAIMKPEIVFFGENLPEQFHRAMKYDKDEVDLLIVIGSSLKVRPVALIPSSIPHEVPQILINREPLPHLHFDVELLGDCDVIINELCHRLGGEYAKLCCNPVKLSEITEKPPRPQKELVHLSELPPTPLHISEDSSSPERTVPQDSSVIATLVDQATNNNVNDLEVSESSCVEEKPQEVQTSRNVENINVENPDFKAVGSSTADKNERTSVAETVRKCWPNRLAKEQISKRLEGNQYLFVPPNRYIFHGAEVYSDSEDDVLSSSSCGSNSDSGTCQSPSLEEPLEDESEIEEFYNGLEDDTERPECAGGSGFGADGGDQEVVNEAIATRQELTDVNYPSDKS
partner: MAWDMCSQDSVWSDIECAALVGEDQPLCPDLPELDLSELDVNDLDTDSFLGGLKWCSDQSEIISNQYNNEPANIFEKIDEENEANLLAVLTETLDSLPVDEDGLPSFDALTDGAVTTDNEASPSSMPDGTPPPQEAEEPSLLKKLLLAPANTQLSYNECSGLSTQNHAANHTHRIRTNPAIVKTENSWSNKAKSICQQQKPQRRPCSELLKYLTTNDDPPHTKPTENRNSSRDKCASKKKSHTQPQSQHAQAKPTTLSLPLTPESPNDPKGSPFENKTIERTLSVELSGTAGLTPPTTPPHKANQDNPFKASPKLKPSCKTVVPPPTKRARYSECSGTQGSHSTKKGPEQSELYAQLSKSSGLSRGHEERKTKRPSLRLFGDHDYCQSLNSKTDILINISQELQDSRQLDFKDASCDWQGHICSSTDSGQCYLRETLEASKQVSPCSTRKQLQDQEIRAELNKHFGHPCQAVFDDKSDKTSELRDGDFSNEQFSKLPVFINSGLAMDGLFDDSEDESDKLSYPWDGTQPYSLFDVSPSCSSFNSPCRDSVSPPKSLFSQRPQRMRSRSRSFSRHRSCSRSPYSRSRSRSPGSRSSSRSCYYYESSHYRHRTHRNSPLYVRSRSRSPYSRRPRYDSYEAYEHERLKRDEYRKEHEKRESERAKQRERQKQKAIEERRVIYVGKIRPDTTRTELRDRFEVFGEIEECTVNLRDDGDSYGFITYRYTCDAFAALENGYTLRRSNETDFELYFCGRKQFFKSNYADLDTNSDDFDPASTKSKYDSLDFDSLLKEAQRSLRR

Variants of: B1
Conditions: with prgc1_mouse Ppargc1a

| Variant | effect of a mutation on the interaction |
| --- | --- |
| G261A | decreasing interaction |
